Test results: patent US12679878B2, “CRF2 receptor agonists and their use in therapy” (SANOFI, priority 2020, dated 2026)
Starred links: 1 amine or outer side, 2 acyl side, 3 side chain; linkers in the order of their positions; H or OH if unused. Non-standard residues stand in square brackets, D forms with d. Groups on a side chain read outwards from the residue. *: point of attachment. C18 diacid = O=C(O)CCCCCCCCCCCCCCCCC(=O)*; γGlu = O=C(O)[C@H](CCC(=O)[*:2])N[*:1]; AEEA = NCCOCCOCC(=O)O; Aib = CC(C)(N)C(=O)O

B1: peptide of SEQ ID NO: 167 (peptide)
peptide: Ac-IVLSLD[dV]PIGLK([AEEA-AEEA-γGlu-C18 diacid])QILLEQERQK[Aib]QREQAEKNEQILEQV-NH2
SMILES: CC[C@H](C)[C@H](NC(C)=O)C(=O)N[C@H](C(=O)N[C@@H](CC(C)C)C(=O)N[C@@H](CO)C(=O)N[C@@H](CC(C)C)C(=O)N[C@@H](CC(=O)O)C(=O)N[C@@H](C(=O)N1CCC[C@H]1C(=O)N[C@H](C(=O)NCC(=O)N[C@@H](CC(C)C)C(=O)N[C@@H](CCCCNC(=O)COCCOCCNC(=O)COCCOCCNC(=O)CC[C@H](NC(=O)CCCCCCCCCCCCCCCCC(=O)O)C(=O)O)C(=O)N[C@@H](CCC(N)=O)C(=O)N[C@H](C(=O)N[C@@H](CC(C)C)C(=O)N[C@@H](CC(C)C)C(=O)N[C@@H](CCC(=O)O)C(=O)N[C@@H](CCC(N)=O)C(=O)N[C@@H](CCC(=O)O)C(=O)N[C@@H](CCCNC(=N)N)C(=O)N[C@@H](CCC(N)=O)C(=O)N[C@@H](CCCCN)C(=O)NC(C)(C)C(=O)N[C@@H](CCC(N)=O)C(=O)N[C@@H](CCCNC(=N)N)C(=O)N[C@@H](CCC(=O)O)C(=O)N[C@@H](CCC(N)=O)C(=O)N[C@@H](C)C(=O)N[C@@H](CCC(=O)O)C(=O)N[C@@H](CCCCN)C(=O)N[C@@H](CC(N)=O)C(=O)N[C@@H](CCC(=O)O)C(=O)N[C@@H](CCC(N)=O)C(=O)N[C@H](C(=O)N[C@@H](CC(C)C)C(=O)N[C@@H](CCC(=O)O)C(=O)N[C@@H](CCC(N)=O)C(=O)N[C@H](C(N)=O)C(C)C)[C@@H](C)CC)[C@@H](C)CC)[C@@H](C)CC)C(C)C)C(C)C
B2: peptide of SEQ ID NO: 165 (peptide)
peptide: Ac-IVLSLD[dV]PIKLK([AEEA-AEEA-γGlu-C18 diacid])QILLEQARQK[Aib]QREQAEKNEQILEQV-NH2
SMILES: CC[C@H](C)[C@H](NC(C)=O)C(=O)N[C@H](C(=O)N[C@@H](CC(C)C)C(=O)N[C@@H](CO)C(=O)N[C@@H](CC(C)C)C(=O)N[C@@H](CC(=O)O)C(=O)N[C@@H](C(=O)N1CCC[C@H]1C(=O)N[C@H](C(=O)N[C@@H](CCCCN)C(=O)N[C@@H](CC(C)C)C(=O)N[C@@H](CCCCNC(=O)COCCOCCNC(=O)COCCOCCNC(=O)CC[C@H](NC(=O)CCCCCCCCCCCCCCCCC(=O)O)C(=O)O)C(=O)N[C@@H](CCC(N)=O)C(=O)N[C@H](C(=O)N[C@@H](CC(C)C)C(=O)N[C@@H](CC(C)C)C(=O)N[C@@H](CCC(=O)O)C(=O)N[C@@H](CCC(N)=O)C(=O)N[C@@H](C)C(=O)N[C@@H](CCCNC(=N)N)C(=O)N[C@@H](CCC(N)=O)C(=O)N[C@@H](CCCCN)C(=O)NC(C)(C)C(=O)N[C@@H](CCC(N)=O)C(=O)N[C@@H](CCCNC(=N)N)C(=O)N[C@@H](CCC(=O)O)C(=O)N[C@@H](CCC(N)=O)C(=O)N[C@@H](C)C(=O)N[C@@H](CCC(=O)O)C(=O)N[C@@H](CCCCN)C(=O)N[C@@H](CC(N)=O)C(=O)N[C@@H](CCC(=O)O)C(=O)N[C@@H](CCC(N)=O)C(=O)N[C@H](C(=O)N[C@@H](CC(C)C)C(=O)N[C@@H](CCC(=O)O)C(=O)N[C@@H](CCC(N)=O)C(=O)N[C@H](C(N)=O)C(C)C)[C@@H](C)CC)[C@@H](C)CC)[C@@H](C)CC)C(C)C)C(C)C
B3: peptide of SEQ ID NO: 166 (peptide)
peptide: Ac-IVLSLD[dV]PIKLK([AEEA-AEEA-γGlu-C18 diacid])QILLEQERQK[Aib]QREQAEKNEQILEQV-NH2
SMILES: CC[C@H](C)[C@H](NC(C)=O)C(=O)N[C@H](C(=O)N[C@@H](CC(C)C)C(=O)N[C@@H](CO)C(=O)N[C@@H](CC(C)C)C(=O)N[C@@H](CC(=O)O)C(=O)N[C@@H](C(=O)N1CCC[C@H]1C(=O)N[C@H](C(=O)N[C@@H](CCCCN)C(=O)N[C@@H](CC(C)C)C(=O)N[C@@H](CCCCNC(=O)COCCOCCNC(=O)COCCOCCNC(=O)CC[C@H](NC(=O)CCCCCCCCCCCCCCCCC(=O)O)C(=O)O)C(=O)N[C@@H](CCC(N)=O)C(=O)N[C@H](C(=O)N[C@@H](CC(C)C)C(=O)N[C@@H](CC(C)C)C(=O)N[C@@H](CCC(=O)O)C(=O)N[C@@H](CCC(N)=O)C(=O)N[C@@H](CCC(=O)O)C(=O)N[C@@H](CCCNC(=N)N)C(=O)N[C@@H](CCC(N)=O)C(=O)N[C@@H](CCCCN)C(=O)NC(C)(C)C(=O)N[C@@H](CCC(N)=O)C(=O)N[C@@H](CCCNC(=N)N)C(=O)N[C@@H](CCC(=O)O)C(=O)N[C@@H](CCC(N)=O)C(=O)N[C@@H](C)C(=O)N[C@@H](CCC(=O)O)C(=O)N[C@@H](CCCCN)C(=O)N[C@@H](CC(N)=O)C(=O)N[C@@H](CCC(=O)O)C(=O)N[C@@H](CCC(N)=O)C(=O)N[C@H](C(=O)N[C@@H](CC(C)C)C(=O)N[C@@H](CCC(=O)O)C(=O)N[C@@H](CCC(N)=O)C(=O)N[C@H](C(N)=O)C(C)C)[C@@H](C)CC)[C@@H](C)CC)[C@@H](C)CC)C(C)C)C(C)C

Columns and labels:
[1] = biological target: rat CRF2R α receptor (rat, UniProt P47866 20-411); experiment: cell-based or functional assay
[2] = biological target: T1, anti-target CRF1R receptor (UniProt P34998 24-415, limits assumed); experiment: cell-based or functional assay
T1 sequence (looked up): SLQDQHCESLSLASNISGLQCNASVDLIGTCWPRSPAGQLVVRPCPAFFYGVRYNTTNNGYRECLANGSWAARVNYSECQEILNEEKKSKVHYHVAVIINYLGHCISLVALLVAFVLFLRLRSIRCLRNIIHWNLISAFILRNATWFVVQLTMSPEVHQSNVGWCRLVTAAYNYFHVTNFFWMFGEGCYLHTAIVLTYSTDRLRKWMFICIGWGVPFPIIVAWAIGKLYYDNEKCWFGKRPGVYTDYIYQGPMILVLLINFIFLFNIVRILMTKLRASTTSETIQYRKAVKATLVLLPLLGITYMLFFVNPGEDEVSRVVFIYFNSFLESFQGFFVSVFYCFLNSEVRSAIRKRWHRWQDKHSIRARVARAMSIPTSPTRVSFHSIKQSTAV

Chain of rat CRF2R α receptor (P47866 20-411): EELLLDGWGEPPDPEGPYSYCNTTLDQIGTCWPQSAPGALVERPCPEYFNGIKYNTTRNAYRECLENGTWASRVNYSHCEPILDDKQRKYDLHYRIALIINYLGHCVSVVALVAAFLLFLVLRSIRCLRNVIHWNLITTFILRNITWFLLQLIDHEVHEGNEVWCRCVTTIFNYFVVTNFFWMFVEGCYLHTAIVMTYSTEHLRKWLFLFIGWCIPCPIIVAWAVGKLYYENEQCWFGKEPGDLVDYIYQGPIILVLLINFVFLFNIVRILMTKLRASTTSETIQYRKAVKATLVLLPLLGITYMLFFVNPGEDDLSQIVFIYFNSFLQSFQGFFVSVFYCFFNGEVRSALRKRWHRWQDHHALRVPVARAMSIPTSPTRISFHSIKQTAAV

Row | Binder | EC50 [nM], 0% HSA (cAMP, A7R5 cells) [1] [nM] | EC50[nM] 0% HSA (cAMP, CRF1R-overexpression CHO cells) [2] [nM] | Emax (%) (cAMP, CRF1R-overexpression CHO cells) [2]
1 | B1 | 76.9 | > 1000 | -0.46
2 | B2 | 2.41 | > 1000 | 26.9
3 | B3 | 9.99 | > 1000 | 5.94
